In patent US20040248181A1, “Method and kit for enhancing extraction and quantification of target molecules using microdialysis” (priority 2003, published 2004):

B1: IL-2: mouse cytokine, 15 kD; target analyte of microdialysis sampling (protein, UniProt P04351 21-169, looked up)
Interleukin-2: APTSSSTSSSTAEAQQQQQQQQQQQQHLEQLLMDLQELLSRMENYRNLKLPRMLTFKFYLPKQATELKDLQCLEDELGPLRHVLDLTQSKSFQLEDAENFISNIRVTVVKLKGSDNTFECQFDDESATVVDFLRRWIAFCQSIISTSPQ

Assay: Microdialysis sampling of cytokines across CMA-20 probe (10 mm polyethersulfone membrane, 100 kD MWCO) with multiplexed cytokine bead array / flow cytometry readout
Format: physicochemical
Settings: control perfusion fluid without microspheres; flow rate 1.5 μl/min; quiescent phosphate buffer pH 7.4 containing 5000 pg/ml cytokines
Description: Microdialysis probes (CMA-20) with a 10 mm polyethersulfone membrane (100 kDa MWCO) were purchased from CMA Microdialysis (Acton Mass.) and were used as received. For control experiments, the perfusion fluid contained the assay diluent from the BD Pharmingen kit. To enhance the transport of cytokines during the microdialysis sampling process, 5 μl of bead solution for each target analyte was combined and diluted to 250 μl with the assay diluent. […] Greater than 200 μl of fluid was allowed to pass through the microdialysis probe that was immersed into a standard containing 5000 pg/ml of IL-2, IL-4, IL-5, IFN-gamma, and TNF-alpha. After sample collection, the dialysates containing microspheres were reconstituted in 25 μl of assay diluent. Microspheres with coupled target analyte were then incubated with 25 μl phycoerythrin detection reagent for 2 hours and washed briefly prior to flow cytometric analysis.
The dialysate samples were analyzed using a BD FACScan flow cytometer with the appropriate BD Biosciences software for this analysis.
Different cytokines (e.g., mouse IL-2 (15 kD), IL-4 (20-25 kD), and TNF-α ([…])) have been successfully measured across microdialysis probes (CMA-20, 10 mm, polyethersulfone membrane, MWCO 100 kD) in a quiescent solution using a multiplexed cytokine bead array assay (BD Pharmingen). TNF-α has the largest molecular weight of the cytokines targeted for analysis in this example (Thorpe et al., “Detection and Measurement of Cytokines,” Blood Rev. 6:133-48 (1992), which is hereby incorporated by reference in its entirety). Only 25 μl of sample was needed to simultaneously measure all three of these cytokines in solution using the multiplexed bead array (Carson et al., “Simultaneous Quantitation of 15 Cytokines Using a Multiplexed Flow Cytometric Assay,” J. Immunol. Methods 227:41-52 (1999), which is hereby incorporated by reference in its entirety). […]

Molecule	microdialysis Ed (extraction efficiency) [%]
TNF-α	1.5±0.5
IL-4: mouse cytokine, 20-25 kD; target analyte of microdialysis sampling	0.9±0.3
B1	1.1±0.3
